Assay results as given in patent publication US20170240613A1 (REGENTS OF THE UNIVERSITY OF COLORADO A BODY CORPORATE, published 2017).

Assays:
[1] = molecular target: T1, human CD112R (form used in Example 18 not stated) (human), Q6DKI7; experiment: flow cytometry, CD112-Fc staining of human CD112R; panel '+2H6'
T1 chain: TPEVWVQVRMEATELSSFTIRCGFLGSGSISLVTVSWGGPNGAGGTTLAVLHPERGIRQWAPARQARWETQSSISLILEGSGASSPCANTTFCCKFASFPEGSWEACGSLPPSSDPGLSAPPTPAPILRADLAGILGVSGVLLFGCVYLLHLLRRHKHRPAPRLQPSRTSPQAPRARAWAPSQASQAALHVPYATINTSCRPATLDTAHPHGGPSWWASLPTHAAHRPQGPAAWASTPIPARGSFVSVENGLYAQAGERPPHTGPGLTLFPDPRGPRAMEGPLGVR

[2] = molecular target: T1, human CD112R (form used in Example 18 …); experiment: flow cytometry, CD112-Fc staining of human CD112R; panel '+4-4'
[3] = molecular target: T1, human CD112R (form used in Example 18 …); experiment: flow cytometry, CD112-Fc staining of human CD112R; panel '+4-5'
[4] = molecular target: T1, human CD112R (form used in Example 18 …); experiment: flow cytometry, CD112-Fc staining of human CD112R; panel 'None'
[5] = molecular target: T2, human CD112-Fc fusion protein (human; mouse, UniProt Q92692 32-360); experiment: SPR, Biacore 3000, CD112 amine-coupled to CM5 chip, CD112R as analyte at 4-333 nM
T2 construct: extracellular domain; Used soluble for cell staining, coated on beads, coated on plates and amine-coupled to a CM5 chip; the Biacore text only says CD112; also called CD112-Ig; CD112 fusion protein; not shown: constant region (Fc) of mouse IgG2a
T2 sequence (looked up): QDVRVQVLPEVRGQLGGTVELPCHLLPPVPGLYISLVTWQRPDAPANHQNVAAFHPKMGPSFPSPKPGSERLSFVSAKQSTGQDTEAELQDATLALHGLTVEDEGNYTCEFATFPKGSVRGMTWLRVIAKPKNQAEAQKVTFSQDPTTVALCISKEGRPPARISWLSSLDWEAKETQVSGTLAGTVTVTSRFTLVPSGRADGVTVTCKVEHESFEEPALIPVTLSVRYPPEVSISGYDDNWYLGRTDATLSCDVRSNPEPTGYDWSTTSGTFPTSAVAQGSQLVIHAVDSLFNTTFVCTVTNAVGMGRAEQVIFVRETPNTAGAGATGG
Text: (§1) FIG. 3D depicts a graph showing BIAcore3000 analysis of CD112R binding to CD112. A series of concentrations of CD112R protein was used to measure the binding kinetics with immobilized CD112.
(§2) All bio sensor experiments were run on a Biacore 3000 instrument (GE Healthcare, Piscataway, N.J., USA). PBS with 0.005% P20 buffer (Gibco) was used as the running buffer for both the immobilization and kinetics experiments. Amine-coupling chemistry was used to immobilize protein FLAG, CD112 and CD155 to a CM5 sensor chip surface at […]. Kinetic experiments were carried out for three different ligands using three different concentration series: 4, 12, 36, 111, 333 nM of CD112R; 9000, 3000, 1000, 333, 111 nM TGIT; 9000, 3000, 1000, 333, 111 nM PVR L3. All samples were diluted in PBS buffer and were injected for 3 minutes across the surface at a flowrate of 20 flL/min and the dissociation of analyte from the surface-bound ligands was monitored for 5 minutes. All analyte concentrations were performed in duplicate and an unmodified reference flow cell was used to correct for instrument drift and/or noise. Buffer blanks were used to double-reference the obtained kinetic data. Raw sensogram data was processed and fit using the Scrubber software package (Version 2.0b, BioLogic Software, Campbell, Australia; http_www_biologic_com_au).

[6] = molecular target: T2, human CD112-Fc fusion protein; experiment: Biacore 3000, concentration series of CD112R protein over immobilized CD112
Text: as §1, §2

[7] = molecular target: T2, human CD112-Fc fusion protein; experiment: competition on coated CD112 (beads, flow cytometry): staining by CD112R protein in the presence of rising CD226 protein
Text: FIG. 3F depicts graphs showing the competitive binding assay for CD112 among CD112R, CD226, and TIGIT. Coated CD112 was stained by CD112R protein in the presence of different concentration of TIGIT or CD226 protein; on the other hand, coated CD112 were stained by CD226 protein, in the presence of different concentration of CD112R protein.
CD112 is known to interact with both CD226 and TIGIT, though the latter interaction is relatively weak (Bottino et al., 2003; Stanietsky et al., 2009; Yu et al., 2009). It was investigated whether these two counter receptors compete with CD112R for CD112 interaction. CD112 protein was coated on beads, and stained with CD112R protein in the presence of different concentration of TIGIT or CD226 protein. Inclusion of TIGIT had little effect on disrupting this interaction, while CD226 was a good inhibitor of the CD112-CD112R binding (FIG. 3F). […] Because of the weak interaction between CD112 and TIGIT, as well as limited coated CD112 protein on beads, binding between these two molecules by flow cytometry was not observed. […] This conclusion was further supported by the studies that a CD112 mAb, clone TX31, blocked the binding of CD112 to both CD112R and CD226 (FIG. 4B and FIG. 8).

[8] = molecular target: T3, mouse CD112 on RMA-S cells (RMA-S/mCD112) (mouse, UniProt P32507 32-530); experiment: flow cytometry, RMA-S/mCD112 cells against control RMA-S cells
T3 construct: whole, on cells; also called mCD112 transfectants; RMA-S/mCD112 cells
T3 sequence (looked up): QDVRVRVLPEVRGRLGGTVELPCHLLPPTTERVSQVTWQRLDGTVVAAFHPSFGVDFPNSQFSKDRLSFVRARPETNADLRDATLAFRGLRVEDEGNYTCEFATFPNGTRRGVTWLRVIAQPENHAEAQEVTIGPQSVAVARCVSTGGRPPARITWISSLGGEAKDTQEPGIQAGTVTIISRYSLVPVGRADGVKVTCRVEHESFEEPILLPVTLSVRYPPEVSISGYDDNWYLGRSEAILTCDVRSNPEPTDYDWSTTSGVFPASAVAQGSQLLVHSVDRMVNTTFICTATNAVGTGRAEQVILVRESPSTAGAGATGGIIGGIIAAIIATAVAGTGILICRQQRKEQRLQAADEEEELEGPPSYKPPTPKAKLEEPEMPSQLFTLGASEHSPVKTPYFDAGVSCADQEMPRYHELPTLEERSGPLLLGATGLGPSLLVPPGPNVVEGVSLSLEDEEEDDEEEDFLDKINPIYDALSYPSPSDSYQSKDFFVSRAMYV
Text: FIG. 3E depicts graphs showing that the CD112R/CD112 interaction was conserved in mice. RMA-S/mCD112 cells (blue), a mouse lymphoma cell line stably expressing mCD112, or control RMA-S cells (red) were stained with mouse CD112R-Fc, mouse CD226-Fc or mouse TIGIT-Fc respectively.

B1: human CD112-Fc fusion protein, Q92692 32-360 (Fc fusion, UniProt Q92692 32-360, looked up, not shown: a dimerising Fc or GST)
chain: T2 sequence (looked up)
1 subset (share of events in the gate drawn over the histogram) [1]: 4.26
1 subset (share of events in the gate drawn over the histogram) [2]: 13.8
1 subset (share of events in the gate drawn over the histogram) [3]: 12.8
1 subset (share of events in the gate drawn over the histogram) [4]: 11.2

B2: human CD112R-mFc protein (extracellular domain of human CD112R fused to mouse IgG2a constant region) (Fc fusion)
chain: TPEVWVQVRMEATELSSFTIRCGFLGSGSISLVTVSWGGPNGAGGTTLAVLHPERGIRQWAPARQARWETQSSISLILEGSGASSPCANTTFCCKFASFPEGSWEACGSLPPSSDPGLSARSPRGPTIKPCPPCKCPAPNLLGGPSVFIFPPKIKDVLMISLSPIVTCVVVDVSEDDPDVQISWFVNNVEVHTAQTQTHREDYNSTLRVVSALPIQHQDWMSGKEFKCKVNNKDLPAPIERTISKPKGSVRAPQVYVLPPPEEEMTKKQVTLTCMVTDFMPEDIYVEWTNNGKTELNYKNTEPVLDSDGSYFMYSKLRVEKKNWVERNSYSCSVVHEGLHNHHTTKSFSRTPGK
notes: also called CD112R fusion protein; CD112R protein
Kd [5]: 88 nM
Kd [6]: 88.4 nM

B3: human CD226-Fc fusion protein (Fc fusion, UniProt Q15762 19-254, looked up)
chain: EEVLWHTSVPFAENMSLECVYPSMGILTQVEWFKIGTQQDSIAIFSPTHGMVIRKPYAERVYFLNSTMASNNMTLFFRNASEDDVGYYSCSLYTYPQGTWQKVIQVVQSDSFEAAVPSNSHIVSEPGKNVTLTCQPQMTWPVQAVRWEKIQPRQIDLLTYCNLVHGRNFTSKFPRQIVSNCSHGRWSVIVIPDVTVSDSGLYRCYLQASAGENETFVMRLTVAEGKTDNQYTLFVA
notes: extracellular domain; also called CD226 protein; not shown: constant region (Fc) of mouse IgG2a
binding result [7]: binds

B4: mouse TIGIT-Fc fusion protein (Fc fusion, UniProt P86176 29-148, looked up)
chain: TIDTKRNISAEEGGSVILQCHFSSDTAEVTQVDWKQQDQLLAIYSVDLGWHVASVFSDRVVPGPSLGLTFQSLTMNDTGEYFCTYHTYPGGIYKGRIFLKVQESSDDRNGLAQFQTAPLG
notes: extracellular domain; also called TIGIT protein; not shown: Fc
binding result [8]: no binding
